# Experimental data reported in patent US20240409645A1 (DUALYX, published 2024).
# Numbering of substitutions follows the chain as printed.
# T1: human IL-2Rβ (human, UniProt P14784 27-240, limits assumed)
# T1 construct: recombinant protein, coated or immobilised; also called hu IL-2R; IL-2R beta
# T1 sequence: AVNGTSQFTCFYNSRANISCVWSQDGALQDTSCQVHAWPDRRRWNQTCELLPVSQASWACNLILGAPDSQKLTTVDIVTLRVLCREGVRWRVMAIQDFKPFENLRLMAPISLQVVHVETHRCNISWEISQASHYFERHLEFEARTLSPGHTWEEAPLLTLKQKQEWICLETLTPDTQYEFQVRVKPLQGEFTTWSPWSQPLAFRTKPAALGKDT
# B1: FJ1427_P035MP02F03 (VHH)
# VHH: EVQLVESGGGLVQAGGSLRLSCAASGGTFSSYAMGWFRQAPGKEREFVAATTRGGGRTMYAVSTEGRFTCSRDNAKNTVYLLMNSLKPEDTAVYYCAAMTSYYSGTYYPDSSDFDIWGQGTQVTVSS
# notes: soluble VHH in periplasmic extract; also called clone nr
# B2: FJ1427 P035MP02H04 (VHH)
# VHH: B1 VHH with E1Q, G16D, A24T, G27L, M34L, E44K, A75D, E89K
# notes: as for B1
# B3: FJ1427_P035MP02B04 (VHH)
# VHH: B1 VHH with R19G, L82Q, E89K, V93I
# notes: as for B1
# B4: FJ1427_P035MP02A06 (VHH)
# VHH: B1 VHH with E1Q, V5Q, A75D, E89K
# notes: as for B1
# B5: FJ1427_P035MP02D03 (VHH)
# VHH: B1 VHH with E1Q, S17P
# notes: as for B1
# B6: FJ1427_P035MP02E04 (VHH)
# VHH: B1 VHH with L82Q, E89K, V93I
# notes: as for B1
# B7: FJ1427 P035MP02E02 (VHH)
# VHH: EVQLVESGGGLVQTGGSLRLSCAASGSQFINDVMGWYRQVPGKQRELVADMDDTGSTKYADSVKGRFTILRDSVKNTAYLQMSNLKPEDTGVYYCKAGLWIKGRHSDYWGQGTQVTVSS
# notes: as for B1
# B8: FJ1427_P035MP02A05 (VHH)
# VHH: B7 VHH
# notes: as for B1
# B9: FJ1427_P035MP02B01 (VHH)
# VHH: B7 VHH with E1Q, S106F
# notes: soluble VHH in periplasmic extract; also called clone nr; 98
# B10: FJ1427 P035MP02C05 (VHH)
# VHH: QVQLVESGGGLVQTGGSLRLSCAVSGSRFISDVMGWYRQVPGKQRELVADMADGGSAKYADSVKGRFSILRDSVKNTVYLQMSSLKPEDTGIYYCKAGLWIAGRHSDYWGQGTQVTVSS
# notes: as for B1
# B11: FJ1427_P035MP02F01 (VHH)
# VHH: B10 VHH with Q1E
# notes: as for B1
# B12: FJ1427_P035MP02B05 (VHH)
# VHH: B7 VHH with S106F
# notes: soluble VHH in periplasmic extract; also called clone nr; 130
# B13: FJ1427 P035MP02D01 (VHH)
# VHH: B7 VHH with E1Q, V5Q
# notes: soluble VHH in periplasmic extract; also called clone nr; 100
# B14: FJ1427 P035MP02G05 (VHH)
# VHH: B7 VHH with M34T
# notes: as for B1
# B15: FJ1427_P035MP02D04 (VHH)
# VHH: B10 VHH
# notes: as for B1
# B16: FJ1427 P035MP02C03 (VHH)
# VHH: B7 VHH with K58E, S106F
# notes: soluble VHH in periplasmic extract; also called 14-MP02C03; clone nr
# B17: FJ1427 P035MP02F04 (VHH)
# VHH: B7 VHH with S106F
# notes: as for B1
# B18: FJ1427 P035MP02A04 (VHH)
# VHH: B7 VHH with A23T, K64N
# notes: as for B1
# B19: FJ1427_P035MP02F05 (VHH)
# VHH: B10 VHH with Q1E
# notes: as for B1
# B20: FJ1427_P035MP02G04 (VHH)
# VHH: B7 VHH with E1Q, T14A, S106F
# notes: as for B1
# B21: FJ1427_P035MP02E03 (VHH)
# VHH: EVQLVESGGGSVQTGGSLRLSCVVSGSHFISDVMGWYRQVPGKQRELVADMADGGSVKYGDSVKGRFTILRDSVKNTVTLQMSSLNPEDTGVYYCKAGLWITGRHFDYWGQGTQVTVTS
# notes: as for B1
# B22: FJ1427 P035MP02C01 (VHH)
# VHH: QVQLVESGGGLVQPGGSLGLSCAASGFTFDNYAMSWVRQAPGKGLEWVSSITGAGRGTHYADSVKGRFTISRDNAKNTLYLQMNSLKPEDTAVYYCAKYSSSTYYPPTPARGTDYRGPGTQVTVSS
# notes: soluble VHH in periplasmic extract; also called clone nr; 99
# B23: FJ1427 P035MP02C06 (VHH)
# VHH: B22 VHH with V2L, G19E, D30S, A54F, H59D, K98R, T113R, P118Q
# notes: as for B1
# B24: FJ1427_P035MP02C04 (VHH)
# VHH: B22 VHH with G19E, D30S, A54F, H59D, A75D, K98R, T113R, P118Q
# notes: as for B1
# B25: FJ1427_P035MP02A02 (VHH)
# VHH: B22 VHH with G19R, S35T, M83V, K98R, P107T, A110V, P118Q
# notes: as for B1
# B26: FJ1427 P035MP02D05 (VHH)
# VHH: B22 VHH with G16E, D30S, H59D, S102G, A110V, P118Q
# notes: as for B1
# B27: FJ1427 P035MP02E06 (VHH)
# VHH: B22 VHH with L11S, G19R, D30S, S49A, A54F, H59D, K76E, N77D, T113R, P118Q
# notes: soluble VHH in periplasmic extract; also called 15-MP02E06; clone nr
# B28: FJ1427_P035MP02B06 (VHH)
# VHH: B22 VHH with G16E, D30S, H59D, S102G, A110V, P118Q
# notes: as for B1
# B29: FJ1427_P035MP02A03 (VHH)
# VHH: QVQLVESGGGLVQPGGSLRLSCAASGFTFSNYAMSWVRQAPGKGLEWVSSITGAGRGTYYAESVKGRFTISRDNDKNTLYLQMNSLKPEDTAVYYCAKYDSSTFYPPTPARGIADRGQGTRVTVSS
# notes: as for B1
# B30: FJ1427_P035MP02G03 (VHH)
# VHH: B22 VHH with D30S, S49A, A54F, H59D, I70V, T113R, P118Q
# notes: as for B1
# Biological target: T1, human IL-2Rβ
# Assay: SPR, P.E. off-rate
# Experimental: SPR was performed to determine dissociation rates using Biacore 3000 instrument (GE Healthcare). Briefly, human and mouse IL-2R proteins were immobilized on carboxylmethyl dextran sensor chip (CM5) at approximately 2500 RUs using amine coupling in acetate buffer (GE Healthcare). The VHH-containing P.E. were loaded with a flow rate of 30 uL/min and the off-rates were measured over a 120s period.
row,koff [s⁻¹],Binder
1,0.000828,B1
2,0.00051,B2
3,0.000449,B3
4,0.000484,B4
5,0.000226,B5
6,0.000716,B6
7,0.000269,B7
8,0.000444,B8
9,0.000119,B9
10,0.000346,B10
11,0.0003,B11
12,0.000292,B12
13,0.000167,B13
14,0.000432,B14
15,0.000358,B15
16,0.000714,B16
17,0.000343,B17
18,0.000368,B18
19,0.000334,B19
20,0.000295,B20
21,0.000169,B21
22,0.000789,B22
23,0.00217,B23
24,0.00255,B24
25,0.00262,B25
26,0.00279,B26
27,0.00169,B27
28,0.0046,B28
29,0.000571,B29
30,0.00293,B30

# Biological target: T1, human IL-2Rβ
# Assay: P.E. ELISA, coated protein
# Experimental: In a binding ELISA, human or mouse IL-2Rα, IL-2Rβ and IL-2Rγ proteins were coated directly on maxisorp microtiter plates overnight at 4° C. Free binding sites were blocked using 4% Marvel in PBS for 1 hour. Next, 1:5 dilution of P.E. in 1% Marvel/PBS were added to wells and incubated for 1 hour. […] Binding specificity was determined based on O.D. at 450 nm values compared to negative controls.
row,P.E. binding ELISA OD [OD450 nm],Binder
1,0.212,B1
2,0.376,B2
3,0.375,B3
4,2.55,B4
5,0.286,B5
6,0.255,B6
7,0.254,B7
8,0.263,B8
9,0.271,B9
10,0.237,B10
11,0.469,B11
12,0.553,B12
13,0.573,B13
14,0.567,B14
15,0.447,B15
16,0.183,B16
17,0.516,B17
18,0.533,B18
19,0.206,B19
20,0.549,B20
21,0.242,B21
22,0.7,B22
23,0.351,B23
24,0.424,B24
25,0.223,B25
26,0.118,B26
27,0.581,B27
28,0.125,B28
29,0.207,B29
30,0.197,B30
